{"source": "patent US9289506B2", "about": "“Surface binding of nanoparticle based drug delivery to tissue” (Massachusetts Institute of Technology, priority 2013, dated 2016)", "assay": "Dose dependent biological response to Avidin in bovine cartilage explants (viability, sGAG loss, biosynthesis)", "type": "cell-based", "method": "Briefly, cylindrical cartilage disks (3 mm) were cored using a dermal punch and then sliced to obtain the top 1 mm of cartilage with intact superficial zone. Cartilage disks for all treatment groups were matched for depth and location along the joint surface. They were equilibrated in serum free medium (low glucose Dulbecco's Modified Eagle's Medium [DMEM; 1 g/L]) supplemented with 10 mM HEPES buffer, 0.1 mM nonessential amino acids, 0.4 mM proline, […] ascorbic acis, 100 units/ml penicillin G, 100 µg/ml streptomycin and […] amphotericin B (all from Sigma Aldrich, MO) for 48 h in a 5% CO2 incubator at 37° C. prior to any treatment. […] The medium was changed every 2 days without replenishing Avidin. This simulated the in-vivo condition of one time Avidin injection. The experiment was conducted for three time periods: 2, 4 and 10 days. Upon termination of culture at these time points, 100-200 μm thick slices were cut from the center of disks from each treatment condition. The slices were immediately stained for 2-3 minutes in the dark with fluorescein diacetate (FDA; 4 mg/ml in PBS) and propidium iodide (PI; 40 mg/ml in PBS) (both from Sigma Aldrich, MO). FDA was used to stain the viable cells green, while PI stained the non-viable cells red. The slices were washed with PBS and then imaged using Nikon fluorescence microscope with a 4× objective. Two days before the termination of culture of day 4 and day 10 experiments, the medium was supplemented with 5 μCi/mL [^35S]-sulfate and 10 μCi/mL [^3H]-proline (both from PerkinElmer, Norwalk, Conn.). […] The wet weight was measured for each disk and then digested with proteinase K (Roche, Indianapolis, Minn.) overnight. The cumulative sGAG content in the medium and digested explants was measured using the DMMB assay. The amount of radiolabel in each digested sample and medium standards (^35S and ^3H) were measured using a liquid scintillation counter. Radiolabeled concentration was calculated from the standards and then normalized to the wet weight."}
{"substance": "Avidin: positively charged globular glycosylated tetrameric protein, pI 10.5, 66 kDa, diameter ~7 nm (Invitrogen); SEQ ID NO 1", "values": [{"measurement": "cumulative sGAG loss to medium vs untreated control", "setting": "100 nM and 1 μM, 4 and 10 days", "result": "no significant difference"}, {"measurement": "cumulative sGAG loss to medium", "setting": "100 μM, 4 days", "result": 14.6, "unit": "%"}, {"measurement": "cumulative sGAG loss to medium", "setting": "100 μM, 10 days", "result": 20, "unit": "%"}, {"measurement": "increase in sGAG loss compared to untreated control", "setting": "100 μM, both 4 and 10 days", "result": "about 2 folds"}, {"measurement": "rate of protein and sGAG synthesis", "setting": "increasing dose 0-100 μM, last 48 h of culture", "result": "no significant changes"}, {"measurement": "chondrocyte viability (live-dead fluorescence)", "setting": "one time dose 0-100 μM, 2, 4 and 10 days", "result": "no significant difference in cell viability"}, {"measurement": "safe dose", "setting": "one time dose, bovine cartilage explants", "result": "at least 1 μM"}]}
